The target of test [1] is NiV full-length glycoprotein G (NiV-G) expressed from Ad5-NiVG (Nipah virus, Bangladesh strain (NiV-Bd)). Put plainly: Western blot (ProteinSimple capillary system).
Test [2] has as its target NiV-soluble external domain glycoprotein G (NiV-Ge) expressed from Ad5-NiVGe (Nipah virus, Bangladesh strain (NiV-Bd)). Put plainly: Western blot (ProteinSimple capillary system). (In general: Immunoblotting shows a protein as a band on a membrane.)

Values joined by “and” are separate entries in the source; they are usually repeats but may differ in a detail not shown here. Equal entries are not always repeated.

By stoichiometry N is commonly meant a count of units in the complex or per binding partner.

For “NiV full-length glycoprotein G (NiV-G) expressed from Ad5-NiVG (natural protein)”, the stoichiometry N in test [1] is 2.
With “NiV-soluble external domain glycoprotein G (NiV-Ge) expressed from Ad5-NiVGe (domain or fragment)”, the stoichiometry N in test [2] is 2 and 4.

The values above are taken from PMC10413271.
